Assay [1] deals with T1, 6His–PAK4cat (PAK4 286–591) (human, UniProt O96013 286-591).
T1 construct: human PAK4 catalytic domain, residues 286–591, in pSY5 (His tagged); Residues 297–589 are seen in PDB 4XBU; also called purified PAK4; source: E. coli BL21-CodonPlus(DE3), purified (Ni-NTA; semi-automated Akta system for crystallization)
Description: crystal structure; in-vitro crystals, hanging drop, 6His–PAK4cat 5 mg/ml with 15-fold molar excess of peptide and two times molar excess of ATP, 0.1 M Tris–HCl pH 8.5, 12% PEG 8000, 25 °C, space group P4_(1)2_(1)2. Conditions: both partners purified.

Assay [2] concerns the target T1, 6His–PAK4cat (PAK4 286–591). Description: kinase inhibition assay; 50 nM purified PAK4cat, 10 μM GST-Raf1S338 peptide, 10 μM ATP (γ32P), 25 mM HEPES pH 7.3, 50 mM KCl, 10 mM MgCl2, 30 °C, 20 min; inhibitor pre-incubated with the kinase on ice 10 min; values from the intercepts of the inhibition graphs. Conditions: both partners purified.

T1 sequence (O96013 286-591): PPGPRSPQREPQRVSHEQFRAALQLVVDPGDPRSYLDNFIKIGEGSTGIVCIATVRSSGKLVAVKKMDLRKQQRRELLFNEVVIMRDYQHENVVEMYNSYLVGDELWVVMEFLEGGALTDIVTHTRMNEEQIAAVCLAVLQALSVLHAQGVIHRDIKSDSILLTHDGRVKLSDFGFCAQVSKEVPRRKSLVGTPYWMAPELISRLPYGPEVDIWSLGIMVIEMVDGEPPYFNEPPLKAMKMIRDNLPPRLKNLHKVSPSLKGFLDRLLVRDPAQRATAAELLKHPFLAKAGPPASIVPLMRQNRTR

B1: iBox 23mer synthetic peptide (peptide)
peptide: AEDWTAALLNRGRSRQPLVLGDW
notes: synthetic peptide of the amino-terminal part of the human Inka1 iBox (iBox is 166–203); residues 178–189 are seen in the structure; also called iBox24; synthetic iBox 24mer peptide; source: synthetic peptide
As to B1, the binding result in assay [1] is listed as “binds”.

B2: GST-iBox (Inka1 166–203) (domain or fragment)
chain: EAEDWTAALLNRGRSRQPLVLGDNCFADLVHNWMELPE
modifications: GST carrier left out. Limits 166-203 are the paper's, taken from the 4XBR fusion: Flag/SGS 1-12, iBox 13-50, EF linker 51-52, PAK4 278-591 from 53 (12+38+2+314=366). Entity position = paper number …
For orientation: Ki means a dissociation constant, usually derived from enzyme kinetics or from competition with a known ligand. Turning to B2, the Ki in assay [2] was found to be 30 nM.

(Values after article PMC4674680, “An in cellulo-derived structure of PAK4 in complex with its inhibitor Inka1” (Nature Communications, 2015).)
